According to US20040063148A1:

What was measured:
Gαt-rod peptide = tested on: T1, Gαt-rod peptide
T1 sequence: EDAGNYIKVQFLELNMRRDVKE

Bovine brain calmodulin = Bovine brain calmodulin (UniProt P62157)

PDE1A1 of bovine taste tissue (PDE of anion exchange fraction 11)
PDE activity of fraction 11 (1 µM cGMP as substrate), 100 µM peptide (Gαt-rod peptide): The PDE activities of both fractions 6 and 11 are stimulated by the presence of the Gαt-rod peptide

PDE4 of bovine taste tissue (anion exchange fractions 19-23)
cAMP hydrolyzing activity of fractions 19-23, 100 µM peptide (Gαt-rod peptide): The cAMP hydrolyzing activity of this forth peak is neither Ca^2+/CaM nor Gαt-rod peptide dependent | cAMP hydrolyzing activity of fractions 19-23, 1 mM CaCl2 and 4 µg/ml CaM (Bovine brain calmodulin): The cAMP hydrolyzing activity of this forth peak is neither Ca^2+/CaM nor Gαt-rod peptide dependent

PDE1A7 of bovine taste tissue (PDE of anion exchange fractions 6-7)
PDE activity of fraction 6 (1 µM cGMP as substrate), 100 µM peptide (Gαt-rod peptide): The PDE activities of both fractions 6 and 11 are stimulated by the presence of the Gαt-rod peptide
